{"source": "paper doi:10.1101/2021.04.26.441525", "about": "(bioRxiv, 2021)", "proteins": {"B1": {"name": "BT_1526 myo-inositol phosphate synthase (MIPS) of Bacteroides thetaiotaomicron VPI-5482 (enzyme, UniProt Q8A7J8 1-429, looked up)", "chain": "MKQEIKPATGRLGVLVVGVGGAVATTMIVGTLASRKGLAKPIGSITQLATMRMENNEEKLIKDVVPLTDLNDIVFGGWDIFPDNAYEAAMYAEVLKEKDLNGVKDELEAIKPMPAAFDHNWAKRLNGTHIKKAATRWEMVEQLRQDIRDFKAANNCERVVVLWAASTEIYIPLSDEHMSLAALEKAMKDNNTEVISPSMCYAYAAIAEDAPFVMGAPNLCVDTPAMWEFSKQKNVPISGKDFKSGQTLMKTVLAPMFKTRMLGVNGWFSTNILGNRDGEVLDDPDNFKTKEVSKLSVIDTIFEPEKYPDLYGDVYHKVRINYYPPRKDNKEAWDNIDIFGWMGYPMEIKVNFLCRDSILAAPIALDLVLFSDLAMRAGMCGIQTWLSFFCKSPMHDFEHQPEHDLFTQWRMVKQTLRNMIGEKEPDYLA"}}, "target": "the molecule itself", "experiment": "crystal structure"}
{"protein": "B1", "values": [{"measurement": "stoichiometry N", "result": 4}]}
